Square brackets hold non-standard residues; d marks the D form. Ends that are not written are not given here.
Tests used:
murine Granzyme B = molecular target: T1, murine Granzyme B (Mus musculus, UniProt P04187); assay: In vitro protease cleavage assay with recombinant GzmB; assay type: biochemical; settings: substrate conjugated to IONPs, library of 13 candidate substrates
T1 construct: purchased Peprotech
T1 sequence (P04187 21-247): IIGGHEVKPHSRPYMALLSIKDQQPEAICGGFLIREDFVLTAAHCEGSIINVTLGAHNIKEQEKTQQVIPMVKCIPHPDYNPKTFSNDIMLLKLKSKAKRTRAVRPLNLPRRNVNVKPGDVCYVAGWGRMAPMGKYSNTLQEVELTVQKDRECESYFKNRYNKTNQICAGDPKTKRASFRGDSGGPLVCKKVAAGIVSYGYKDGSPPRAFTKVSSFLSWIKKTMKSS
Protocol: (§1) Synthetic biomarkers (6 nM by NP, 300 nM by peptide) were incubated in PBS+1% bovine serum albumin (BSA; Sigma) at 37° C. with murine Granzyme B (0.2 μM, Peprotech), human thrombin (HaemTech), mouse thrombin (HaemTech), mouse plasmin (HaemTech), Clr (Sigma), Cls (Sigma), Factor D (Sigma), Factor I (Sigma), MASP2 (Biomatik). Sample fluorescence were measured for 60 minutes using Cytation 5 plate reader (Biotek). To optimize GzmB substrate, a library of potential substrates was synthesized by Tufts University Core Facility peptide synthesis service and conjugated to IONPs. Cleavage assays of nanoparticles decorated with these substrates with recombinant GzmB were performed, and data was fitted to compare initial cleavage velocities. To determine Michaelis-Menten constants, cleavage assays with GzmB were performed at different substrate concentrations. To initiate coagulation cascade, citrated plasma was mixed with synthetic biomarkers before addition of calcium chloride (15 mM, Sigma). To initiate complement activation, Control Human Serum (Sigma) was mixed with synthetic biomarkers before addition of Heat Aggregated Gamma Globulin (HAGG; Quidel) per the manufacturer's protocol. After measuring fluorescence for 1 hour, supernatants were collected and measured for formation of MAC complex using Micro Vue CH50 Eq EIA Kit (Quidel).

[1] = system: membrane attack complex (MAC); assay type: biochemical, Human
Protocol: as §1

[2] = system: OT1 T cells killing EG7-OVA target cells
Protocol: (§3) To sense transgenic T cell killing, CD8+OT1 T cells were isolated and activated per above protocol. On day 5 post activation, 1x10^6 OT1 T cells were coincubated with 1x10^6 EL4 or EG7-OVA target cells for 2 hours at 37° C. Coculture supernatants were mixed with synthetic biomarkers (2 nM by NP, 100 nM by peptides) and fluorescence were monitored for 1 hour at 37° C. To sense alloreactive T cell killing, on day 7 post-transplant, CD8 T cells were isolated from splenocytes and lymphocytes of skin graft mice. 5×10^5 CD8 T cells from skin graft mice were restimulated with 5×10^5 splenocytes from BALB/c Mice (Charles River) for 6 hours at 37° C. Coculture supernatants were mixed with synthetic biomarkers (2 nM by NP, 100 nM by peptides) and fluorescence were monitored for 2 hours at 37° C.

[3] = in plasma, DLS
Description: DLS measurements of synthetic biomarkers were done in PBS or mouse plasma at RT using Zetasizer Nano ZS (Malvern).

[4] = system: T cells from skin graft mice with BALB/c donor splenocytes; assay: NP assay sensing alloreactive T cell killing (coculture supernatants); assay type: cell-based, mouse; settings: cocultures containing T cells from mice bearing allografts
Protocol: as §3

GzmB [5] = molecular target: T2, GzmB (Mus musculus, UniProt P04187); assay: Tracking in vivo GzmB cleavage by near infra-red imaging in skin graft mice
T2 construct: cleaved by GzmB secreted by alloreactive T cells; endogenous in cells; host or cells: alloreactive CD8 T cells of C57BL/6 recipient mice bearing BALB/c skin grafts
T2 sequence (P04187 21-247): T1 sequence (P04187 21-247)
Protocol: (§2) To track cleaved fragments after in vivo GzmB cleavage, on day 7 post-transplant, VT750-labelled synthetic biomarkers (10 nmol by peptides) were administered to skin graft mice. Major organs were excised and imaged with Odyssey CLx Imaging System (LI-COR) while mouse bladders were imaged with IVIS Spectrum CT Imaging System (PerkinElmer) after 90 minutes. All urinalysis experiments were done in paired setup. 4 days before and 7 days after surgeries, skin graft mice were administered with FITC-labelled Synthetic biomarkers (10 nmol by peptides). Urine were collected after 90 minutes by placing mice over 96-well plates. FITC in urine was purified by a magnetic separation assay using Dynabeads (Thermo, 65501) coated with anti-FITC (GeneTex, GTX10257). Fluorescent signals were measured with Cytation 5 Plate Reader (Biotek). Concentrations of FITC were calculated using a free FITC ladder and normalized with urine volume. For CD8 depletion study, mice were given anti-mouse CD8 (clone: 53-6.7, BioXCell) for 3 consecutive days following with booster shots every 3 days after. Flow cytometry analysis of splenocytes and lymphocytes were performed with anti-mouse CD3 (clone: 17A2, Biolegend), anti-mouse CD4 (clone: RM4-5, Biolegend), anti-mouse CD8 (clone: KT15, Serotec) to confirm success of depletion.

GzmB [6] = molecular target: T2, GzmB; assay: Urinary prediction of acute cellular rejection in skin graft mouse model; assay type: in vivo, mice
Protocol: as §2

[7] = in vivo
[8] = system: proteases in the coagulation and complement cascades; assay: Specificity: cleavage by key recombinant proteases and activated coagulation and complement cascades; assay type: biochemical; settings: recombinant proteases; plasma + Ca2+; serum + HAGG; fluorescence
Protocol: as §1

AIEFDSGc (AIEFDSG[dC])
rate of cleavage by recombinant GzmB (murine Granzyme B): high rate of cleavage | rate of cleavage by recombinant GzmB (murine Granzyme B; listed as AIEFD|SGc): highest rate of cleavage

synthetic biomarkers: PEG-coated iron oxide nanoparticles conjugated with GzmB peptide substrates carrying a fluorescent reporter (AIEFDSG[dC]; not fully specified; printed as AIEFDSGc; also: conjugated to PEG-coated iron oxide nanoparticle via Cys thiol and SIA, FITC reporter, position not given here)
formation of membrane attack complex (MAC) [1]: not detected | sensing of cytotoxic signal (fluorescence) [2]: amplified cytotoxic signal | correlation of initial velocity of probe activation with secretory GzmB ([2]; coculture supernatant): strongly correlated | Z-average [3]: 47 nm | activation kinetics [4]: Increased activation kinetics | full body imaging bladder fluorescent signals (GzmB [5]; allograft vs isograft mice): only detected fluorescent signals from the bladders of allograft mice | GzmB activity (fluorescent signal) in kidney, allograft mice with respect to isograft mice (GzmB [5]; day 7 post-transplant): 3 fold | ROC area under the curve (AUC) (GzmB [6]; accepting isografts vs rejecting allografts): 0.969 | post-graft urine signals compared to pre-graft signals (GzmB [6]; allograft mice, day 7 vs day -4): more than 2 fold | post-graft urine signals with respect to pre-graft signals (GzmB [6]; naïve mice, isograft mice, allograft mice depleted of CD8 T cells): did not detect significant elevation | tolerability [7]: well tolerated | activation by proteases in the coagulation and complement cascades [8]: not activated

From patent US12692533B2, “Methods and compositions for noninvasive detection of organ transplant rejection” (Georgia Tech Research Corporation, priority 2016, dated 2026)
